Results as given in the DeepSol protein solubility set.

Assay: soluble on expression in E. coli; label from the status in PepcDB or PDB records

Soluble on expression in E. coli, not soluble:
MTKKYLKVDVVSPLGSVFKGEADMVSLRGSAGEMGIAYGHTELLSTLPAGVVNVRKDQHTDVLYVSGGIVEVTPTRVTIMVDDMERAENLNQAEAEKARARAKEVLKNPDASKLDIEAANKRLKEADARLKALNSSNGLYYSKDD
MNNRSAVRILRLPAVIQKTGMARATIYDWLNPKSPRYDATFPKKRMLGVKSVGWIEAEIDEWLSQRCKLILEHHHHHH
MSDYCSNDASPFGDYDLPSDEPSPKYQKLNKNIFSPLSPTFELKFQSKLRVSGNSTSSTTSDDSDDESLHRSNQLKHLETLFKESILRTSFSRPGVSNTSCDEKLDLVSEDEKKRLRNTEAARRCREKIKRKTDDLETELTRLTARNEVMNQHRIRLLSQVEEQMRMLENIKSRNPELEAEIRYEAKKIVDTYTHQVETKRKAIQDYFDMTCNKLY
LPAYEKQVEVVEKDLEQVHICLGTKAFPQNHPRRFEVYLVNTLLGGSMSSRLFQEIRERLGLAYSVYSYVVSHTDAGSLVVYVGTSPEKLDDVLDITVAELKRLKTELVPLPELESAKEQIKGSIYLSLESSDNRMTKLAKNEIYFGRYIPIHELADGFDSVTSRGILELAGEIFDERYLTLALMGKIDSAAFDVSRLAL
MKRLIVGISGASGAIYGVRLLQVLRDVTDIETHLVMSQAARQTLSLETDFSLREVQALADVTHDARDIAASISSGSFQTLGMVILPCSIKTLSGIVHSYTDGLLTRAADVVLKERRPLVLCVRETPLHLGHLRLMTQAAEIGAVIMPPVPAFYHRPQSLDDVINQTVNRVLDQFAITLPEDLFARWQGA
MGSDKIHHHHHHMKVYLVGGAVRDQLLGLPVKDRDWIVVGADPATLLSLGYQQVGKDFPVFLNPKTKEEYALARTERKSSAGYTGFICDFSPTITLEQDLIRRDLTINAMAQSEDGEIIDPYGGKQDLENRILRHISPAFSEDPLRVLRVARFAARYHSLGFKIASETLALMAELAQSGELQHLTAERIWLETEKALNEKNPEIYFETLHKTGALSVLFSEIDALYGVPNPVKHHPEVDSFIHTMLVLKQAVNLTENNPILNKSAVRFAAICHDLGKALTPQNILPHHYGHEQAGIKPTRSLCKRLKVPSYFQELAELTCEFHTHIHKAFELRAETVITLFNRFDVWRKPQRFQEFLQVCLADTRGRTGFETKDYPQIDYINQLLHAANEVDVQQVIADGFEKQAIKNELTKRRILAVKQTKTNYPTN

Soluble on expression in E. coli, soluble:
MAKDPRYVGNLPKIGIRPTIDGRRKGVRESLEETTMNMAKAVAKLLEENVFYYNGQPVECVIADTCIGGVKEAAEAAEKFAREGVGVSITVTPCWCYGTETMDMDPHIPKAVWGFNGTERPGAVYLAAVLAGYNQKGLPAFGIYGKDVQDAGDTNIPEDVKEKLIRFAKAGLAVAMMKGKSYLSIGSVSMGIAGSVVQEDFFQNYLGMRNEYVDMSEFVRRIELGIYDKEEYERALKWVKENCKVGPDNNRDGFKRTEEQKEKDWEISVKMALIARDLMVGNKKLEEMGYGEEALGRNAIVAGFQGQRQWTDYFPNGDFMETILNSSFDWNGKRAPYIFATENDNLNGISMLFGYLLTNTAQIFADVRTYWSPEAVKRVTGYTLEGRAANGIIHLINSGAAALDGTGEQTKDGKPVIKPYYELTDEDIKKCLEATQFRPASTEYFRGGGYSTDFLTKGGMPVTISRLNIVKGLGPVLQIAEGYTVDLPEEVHDVLDKRTDPTWPTTWFVPNLTGEGAFKDVYSVMNNWGANHCSISYGHIGADLITLASILRIPVNMHNVPEEKIFRPDAWSMFGTKDLEGADYRACKKLGPIYK
GMTAPTLSRAAMEKVIRTYYDGCNEADEAKMIACFVPEAVHYFPAGMYGGAFRGAAQIAHRWRTAVETLGSYWTIDALVIDAETAEAAIEWTHFKTNQDKVLRGAECVEFDRASGLIREIRAFYASPQAEGIARLELGDFDYAGRGYRVTSPRKPA
ASWSHPQFEKGAMSNYSMSRGHSDKCVGAEDILSEIKEAEKVLNAASDELKREGHNVKTFIDRTSTTQSANLNKIVNWHNANPADVHISVHLNAGKGTGVEVWYYAGDEKGRKLAVEISAKMAKALGLPNRGAKATKDLRFLNSTKGTAVLLEVCFVDRKEDANAIHKSGMYDKLGIAIAEGLTGKTVAAKNPNRHSGAVVDSVPMLSKMDFKSSPIKMYKAGSSLLVYEHNKYWYKAYINDKLCYIYKSFCISNGKKDAKGRIKVRIKSAKDLRIPVWNNTKLNSGKIKWYSPGTKLSWYDNKKGYLELWYEKDGWYYTANYFLK
